The supplement of paper PMC10567573

B1: SPOPL (parent)
chain: PDDKLTLFCEVSVVQDSVNISGHT
B2: KLHL14 (parent)
chain: NETGYLSSVECYNLETNEWRYVSS

Variants of: B1
Assay: protein stability index of a GFP-peptide fusion (GPS, HEK-293T) (PSI 1-6); higher = more stable
Conditions: c terminus: a fixed tail appended
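Also: lentivirally expressed fusions sorted by FACS into six bins by GFP to DsRed ratio, PSI derived from sequencing read proportions per bin multiplied by bin number.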

Protein stability index: each site, then its substitutions
T6: C 1.81 | I 1.8 | Q 2.58 | W 3.41 | E 2.33 | M 1.79 | N 2.96 | H 2.4 | A 2.15 | F 2.98 | R 2.02 | D 2.84 | P 3.47 | Y 1.25 | L 1.73 | K 3.34 | G 3.19 | S 2.32
C9: L 3.25 | N 4.34 | K 4.34 | H 4.09 | D 4.71 | A 3.47 | E 4.47 | F 2.35 | G 4.42 | I 3.05 | M 2.13
K4: G 2.12 | S 2.23 | E 2.32 | P 2.27 | A 1.89 | Y 2.26 | Q 2.16 | I 1.48 | T 1.53 | L 2.39 | M 1.58 | H 1.95 | N 1.98 | F 2.19 | C 1.56 | R 1.79 | D 2.81
D3: L 2.11 | H 1.47 | S 1.79 | W 1.73 | Y 1.97 | G 2.43 | A 2.06 | N 2.44 | I 2.06 | V 1.8 | K 1.83 | C 1.75 | P 2.5 | F 1.87 | T 1.51 | Q 1.95 | M 1.93 | E 2.2 | R 2.05
F8: D 4.94 | V 1.97 | M 2.86 | L 2.91 | Y 2.08 | K 3.48 | T 2.9 | G 4.82 | E 4.39 | C 3.22 | I 1.3 | P 4.79 | S 3.96 | Q 4.5 | R 2.77 | W 1.62 | A 3.65 | N 4.86 | H 3.64
L5: Q 3.73 | D 4.41 | C 2.88 | V 1.81 | Y 2.28 | G 3.07 | R 3.85 | N 3.95 | S 3.63 | H 3.96 | E 3.9 | P 4.1 | W 1.26 | F 1.52 | K 3.82 | M 2.21 | A 3.66 | T 3.33 | I 1.88
P1: R 2.1 | M 1.81 | Y 1.69 | H 2.18 | K 2.02 | N 2.42 | E 2.2 | D 2.17 | G 1.99 | F 2.36 | Q 2.02 | A 1.81 | I 3.71 | V 1.36 | C 1.93 | L 2.2 | S 2.05 | T 2 | W 2.11
D2: T 1.38 | G 2.44 | V 3.9 | Q 3.11 | L 1.46 | S 1.74 | W 3.07 | H 2.04 | N 1.44 | P 2.71 | A 1.61 | R 2.53 | M 1.61 | I 2.02 | C 1.62 | F 1.5 | K 2.02 | Y 1.38 | E 2.29
L7: M 2.68 | T 3.88 | S 3.49 | C 2.72 | P 4.52 | N 4.32 | A 4.2 | E 4.9 | H 3.79 | G 4.28 | F 1.81 | V 1.92 | I 1.25 | W 1.75 | Y 2.72 | K 4.78 | Q 4.62 | D 4.88 | R 3.94

Variants of: B2
Assay: as above
Conditions: c terminus: a fixed tail appended

Protein stability index of substitutions, site by site:
Y5: Q 4.24 | V 3.8 | I 4 | S 4.16 | L 3.46 | G 4.01 | P 4
N17: R 3.01 | F 2.9 | V 3.06 | D 4.02 | M 3.19 | G 3.67
S8: H 2.17 | A 3.34 | Q 3.29 | D 4.02 | I 2.29 | T 3.27
W19: I 4.75 | N 5.05 | E 4.97 | C 4.26 | V 4.58 | S 5.26 | K 5.08 | R 4.92 | Y 4.5 | A 4.75 | P 3.66 | L 4.37
E2: Y 1.88 | R 2.49 | W 3.64 | Q 2.35 | C 2.7 | P 2.72 | T 2.67 | V 2.51 | F 1.72 | K 2.69 | H 2.02 | M 2.55 | A 2.68
N13: W 1.71 | M 2.21 | C 2.06 | R 2.81 | Q 2.8 | S 2.69 | A 2.99 | Y 2.63 | V 1.47 | I 1.52
S7: W 2.11 | R 3.64 | Q 3.86 | K 2.96
L6: G 3.62 | R 3.82 | I 3.24 | S 3.63 | W 4.46
V22: G 3.85 | H 2.18 | E 4.18 | S 2.71 | M 2.95
T3: Q 3.4 | A 3.3 | D 4.12 | Y 3.21 | W 2.53 | R 2.96 | P 3.85
S23: P 3.39 | G 4.02 | R 2.87 | C 3.22 | L 2.07 | Q 3.73 | A 3.19
N1: Y 2.79 | G 2.71 | M 2.18 | E 3.95 | P 3.49 | V 3.3 | K 3.55
E18: C 2.55 | A 2.83 | P 2.58 | R 3.68 | N 3.49 | W 2.15
L14: A 3.96 | Q 3.88 | N 4.24 | C 3.2 | D 4.15 | R 3.73 | V 3.41 | Y 2.95 | T 3.62 | S 4.68 | K 3.99 | E 4.6
G4: M 2.77 | P 3.92 | V 2.58 | R 2.64 | A 3.75 | D 4
E15: C 2.34 | G 3.18 | S 2.08 | W 2.13 | D 3.41 | N 3.03 | Y 2.15 | L 2.61 | A 1.94 | H 2.42 | K 3.66
C11: N 4.18 | M 3.23 | T 3.6 | G 3.91 | H 4.09 | V 2.76 | S 3.77 | F 2.83 | Q 4.11
R20: Q 3.49 | K 3.6 | S 3.04 | D 4.12 | T 2.69 | I 2.3 | E 4.04
S24: A 4.1 | W 3.44 | T 3.65
Y21: R 3.24 | N 3.67 | E 3.66 | P 3.21 | V 3.57 | F 1.83 | S 3.61
E10: G 2.72 | R 3.23 | D 3.18
Y12: S 4 | M 3.5 | E 4.24 | K 3.97 | G 3.76 | W 3.1 | I 2.95 | P 4.05
T16: F 2.71 | M 2.66 | P 2.89 | E 3.83 | W 2.05 | L 2.63
V9: G 3.88 | Y 3.14 | F 2.67 | T 3.4 | P 3.84 | W 2.43 | H 3.88
